Columns and labels:
[1] = test system: PDCD4; assay: EMSA; settings: 0.2-1.2 uM protein; fluorescein-12-UTP incorporated about every 20-25 nt; 150 mM NaCl, 20 mM HEPES (pH not stated), 1.5 mM MgCl2, 0.1 mM EDTA, 0.75 mM DTT, 10% glycerol; 2.3 nM labelled RNA; on ice 20 min; 1% native agarose gel
[2] = test system: eIF3F; assay: EMSA; settings: 0.4-2.6 uM protein; fluorescein-12-UTP incorporated about every 20-25 nt; 150 mM NaCl, 20 mM HEPES (pH not stated), 1.5 mM MgCl2, 0.1 mM EDTA, 0.75 mM DTT, 10% glycerol; 2.3 nM labelled RNA; on ice 20 min; 1% native agarose gel

## Bcl-xL IRES RNA
[1]
  Kd: 400 nM
[2]
  Kd: 800 nM
